This data set deals with the molecule itself. The data set is described as follows: SEC. Background: In gel filtration, larger molecules generally elute earlier.

B1: murine Ifit1b with a C-terminal His8 tag (natural protein)
chain: MEQLLSPSNMSEESHKSHIHDSLDELRCHFTWELDIKDKHIHDLEIKISETEFRDPIYSIGMHNLLAYVRHLKGQQDEALQSLKEAEALIQSEQLSKRSLATWGNCAWLHYHRGSLAEAQVYLDKVEKVCKEFSSPFRYRLECAEMDCEEGWALRKCGSQNYTRAMACFERALKVEPENPEYNAGYADVAYHLDYYDGNSLQPLKKAVSVKPEDPYLKVLLALKLQDLRKTDEAEKHIKEATLTISSQNNIFGYVAKFYRRKGCVEEALGFLKKALETKPSSPYLHFQIGLCHKTQFFQMKKATSRENRKRADQSCHLAICHFKKTLELKPTYDRAYIDLAEVYAKNHQQKEAEDNFQEVLSMSNLGDYMQQEIHFRYGNFQQYYKKSEEAAITHYLKGLKIEVTSHYRDKLLKALEELAEGRKEDHVLESLSLLGLVCRLRGDTSEAMSCYEKALRLTGAVNPEF
As to B1, the “stoichiometry N” value was 2.

B2: murine Ifit1 with a C-terminal His8 tag (natural protein)
chain: MGENADGDQVMENLLQLRCHFTWKLLFENNDIPDLEVRISEQVQFLDIKNPLGMHNLLAYVRHLKGQQDEALQSLKEAEALIQSEQLSKRSLATWGNCAWLHYHRGSLAEAQIYLDKVEKVCKEFSSPFRYRLECAEMDCEEGWALLKCGGGNYKQAMACFAKALKVEPENPEYNTGYAVVAYRQDLDDNFISLEPLRKAVRLNPEDPYLKVLLALKLQDLGEHVEAEAHIEEALSSTSCQSYVIRYAAKYFRRKHRVDKALHLLNRALQASPSSGYLHYQKGLCYKQQISQLRTSRNRQPRRQDNVQELAQQAIHEFQETLKLRPTFEMAYVCMAEVQAEIHQYEEAERNFQKALNNKTLVAHIEQDIHLRYGRFLQFHKQSEDKAITLYLKGLKVEEKSFAWRKLLTALEKVAERRVCQNVHLVESTSLLGLVYKLKGQEKNALFYYEKALRLTGEMNPAF
Consider B2, for which the “stoichiometry N” value stood at 2.

The stoichiometry N is a count of units in the complex or per binding partner.

For the origin of these results see PMC7762956 (The Journal of Biological Chemistry, 2020).
